# Source: patent US20240239875A1 (CURIA IP, published 2024)
# Changes are numbered by the printed parent chain.
# B1: 1-L10-A (antibody, V domains shown)
# VH: EVKLEESGGGLVQPGGSMKLSCVASGFTFNNYWMNWVRQSPEKGLEWVAQMRLKSDNYATHYAESVKGRFTISRDDSKSSVYLQMNNLRAEDTGIYYCIEGYWTYWGQGTLVTVSA
# VL: QIVLTQSPAIMSASLGERVTMTCTASSSVSSSYLHWYQQKPGSSPKLWIYSTSNLASGVPARFSGNGSGTSYSLTISSMEAEDAATYYCLQYHRSPPYTFGGGTKLEIK
# B2: 7-N20-A (antibody, V domains shown)
# VH: QVQLVETGGGLVRPGNSLKLSCVTSGFTFSNYRMHWLRQPPGKRLEWIGIITDKSDNYGANYAESVKGRFAISRDDSKSSVYLEMKRLREEDTATYFCSRDGYDWYFDLWGTGTTVTVSS
# VL: DIVMTQSHKFMSTSVGDRVRITCKASQDVGIVVAWYQQKPGQSPKLLIYWASTRHTGVPDRFTGSGSGTDFTLTISNVQSEDLADYFCQQYSSYPTFGGGTKLEIK
# B3: 9-F6-A (antibody, V domains shown)
# VH: EVQLQQSGPELVKPGASVKMSCKASGYTFTSYIMHWVKQKPGQGLEWIGYILPYNDGTKYNEKFKGKATLTSDKSSSTAYMELRSLTSEDSAVYYCARWGYSNFLDSWGQGTTLTVSS
# VL: DIQMTQTTSSLSASLGDRVTISCRASQDINNYLNWYQQKPDGTVKLLIYYTSRLHSGVPSRFSGSGSGTDYSLTIRNLEQEDIATYFCQQGNTLPPTFGGGTKLEIK
# B4: 2-G20-A (antibody, V domains shown)
# VH: EVQLQQSGPELVKPGASVKMSCKASGYTFPSYVLHWVKQKPGQGLEWIGYIYPYNDGTNYNEKFKGKATLTSDKSSSTAYMELSSLTSEDSAVYYCARGDYGDSAWFPYWGQGTLVTVSA
# VL: DIVLTQSPASLAVSLGQRATISCRASKSVSTSGYSYMHWYQQKPGQPPKLLIYLASNLKSGVPARFSGGGSGTDFTLNIHPVEEEDAATYYCQLSRELPWTFGGGTKLEIK
# B5: 7-D7-A (antibody, V domains shown)
# VH: QVQLKESGPGLVAPSQSLSITCTVSGFSLTSYAISWVRQPPGKGLEWLGVIWPGGGTNYNSALKSRLSISKDNSKSQVFLKMNSLQTDDTAKYYCARTGYYFDYWGQGTTLTVSS
# VL: QLILTQSPAIMSASPGEKVTMTCSASLSVNYMYWFQQKPGTSPKRWIHDTSKLASGVPARFSGSGSGTSYSLTISSMEAEDAATYYCQQWSSNPPMYTFGGGTKLEIK
# B6: 8-A17-A (antibody, V domains shown)
# VH: B5 VH with I51V, S70N, A91G, K92R, Y101H
# VL: B5 VL with L2I, I3V, A25V, L27S, N30S, Y33H, F35Y, P39S, H48Y
# B7: 6-O12-A (antibody, V domains shown)
# VH: QVQLQQPGTELVKPGASVKLSCKASGYTFTSYWMHWVKQRPGQGLEWIGNINPSNGGTNYNEKFRSKATLTVDKSSSTAYMQLSSLTSEDSAVYYCARLGWFLPLGSWGQGTTLTVSS
# VL: QIVLTQSPAIMSASLGEVITLTCSASSSVSYMHWYQQKSGTSPKLLIYSTSNLASGVPSRFSGSGSGTFYSLTISSVEAEDAADYYCHQWSGYMYTFGGGTKLEIK
# Columns and labels:
# [1] = target: T1, SARS-CoV-2 S2 domain (SARS-CoV-2, UniProt P0DTC2 686-1213); assay: ELISA (FIG. 2C grouping)
# [2] = target: T1, SARS-CoV-2 S2 domain; assay: ELISA (FIG. 10 summary)
Binder,binding result [1],binding result [2]
B1,no binding,
B2,,no binding
B3,no binding,
B4,no binding,
B5,no binding,
B6,no binding,
B7,no binding,
